# B1: Tyrosine-protein phosphatase non-receptor type 18 (Mus musculus), Q61152 (parent)
# chain: MSRHTDLVRSFLEQLEARDYREGAILAREFSDIKARSVAWKSEGVCSTKAGSRLGNTNKNRYKDVVAYDETRVILSLLQEEGHGDYINANFIRGIDGSQAYIATQGPLPHTLLDFWRLVWEFGVKVILMACQETENGRRKCERYWAREQEPLKAGPFCITLTKETTLNADITLRTLQVTFQKEFRSVHQLQYMSWPDHGVPSSSDHILTMVEEARCLQGLGPGPLCVHCSAGCGRTGVLCAVDYVRQLLLTQTIPPNFSLFQVVLEMRKQRPAAVQTEEQYRFLYHTVAQLFSRTLQDTSPHYQNLKENCAPICKEAFSLRTSSALPATSRPPGGVLRSISVPAPPTLPMADTYAVVQKRGASAGTGPGPRAPTSTDTPIYSQVAPRAQRPVAHTEDAQGTTALRRVPADQNSSGPDAYEEVTDGAQTGGLGFNLRIGRPKGPRDPPAEWTRV
# partner: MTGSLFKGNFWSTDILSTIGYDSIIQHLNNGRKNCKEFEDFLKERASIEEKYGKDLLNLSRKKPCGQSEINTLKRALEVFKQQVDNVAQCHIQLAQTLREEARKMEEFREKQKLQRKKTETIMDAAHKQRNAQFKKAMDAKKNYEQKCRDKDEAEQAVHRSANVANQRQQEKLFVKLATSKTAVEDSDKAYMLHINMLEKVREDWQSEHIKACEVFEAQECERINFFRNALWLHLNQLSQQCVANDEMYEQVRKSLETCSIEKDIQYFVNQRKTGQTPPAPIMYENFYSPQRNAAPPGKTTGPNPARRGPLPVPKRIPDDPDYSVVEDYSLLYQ
# B2: Proline-serine-threonine phosphatase-interacting protein 2 (Mus musculus), Q99M15 (parent)
# chain: B1 partner
# partner: B1 chain
# B3: Proline-serine-threonine phosphatase-interacting protein 1 (Mus musculus), P97814 (parent)
# chain: MMAQLQFRDAFWCRDFTAHTGYEVLLQRLLDGRKMCKDVEELLRQRAQAEERYGKELVQIARKAGGQTEMNSLRTSFDSLKQQTENVGSAHIQLALALREELRSLEEFRERQKEQRKKYEAIMDRVQKSKLSLYKKTMESKKAYDQKCRDADDAEQAFERVSANGHQKQVEKSQNKAKQCKESATEAERVYRQNIEQLERARTEWEQEHRTTCEAFQLQEFDRLTILRNALWVHCNQLSMQCVKDDELYEEVRLTLEGCDVEGDINGFIQSKSTGREPPAPVPYQNYYDREVTPLIGSPSIQPSCGVIKRFSGLLHGSPKTTPSAPAASTETLTPTPERNELVYASIEVQATQGNLNSSAQDYRALYDYTAQNSDELDISAGDILAVILEGEDGWWTVERNGQRGFVPGSYLEKL
# partner: B1 chain
# B4: Tyrosine-protein phosphatase non-receptor type 18 (Mus musculus), Q61152 (parent)
# chain: B1 chain
# Variants of: B1
# Settings: with ppip2_mouse Pstpip2, Q99M15
row,effect of a mutation on the interaction,Variant
1,decreasing interaction,R444A

# Variants of: B1
# Settings: with ppip2_mouse Pstpip2, Q99M15
# Remark: another data set of the same source
row,effect of a mutation on the interaction,Variant
1,decreasing interaction,W450A

# Variants of: B2
# Settings: with ptn18_mouse Ptpn18, Q61152
row,effect of a mutation on the interaction,Variant
1,disrupting interaction,W232A

# Variants of: B3
# Settings: with ptn18_mouse Ptpn18, Q61152
row,effect of a mutation on the interaction,Variant
1,disrupting interaction,W232A

# Variants of: B4
# Settings: with ppip1_mouse Pstpip1, P97814
row,effect of a mutation on the interaction,Variant
1,decreasing interaction,R444A

# Variants of: B4
# Settings: with ppip1_mouse Pstpip1, P97814
# Remark: another data set of the same source
row,effect of a mutation on the interaction,Variant
1,decreasing interaction,W450A

# Reference: IntAct's records for PubMed 9804817
